Test results taken from patent CN116715768A.

Target: EGFRvIII (表皮生长因子受体III型突变体) (human) (UniProt P00533)
Assay: flow cytometry; antibody supernatant on EGFRvIII-PBMC engineered cells, detected with anti-mouse-APC IgG

结合率 (APC阳性比率): 93.7%
B1: Anti EGFRvIII抗体 (抗EGFRvIII单克隆抗体) (antibody, V domains shown)
VH: QVQTQQSGTELVRPGALVKLSCKPSGFNIKDYYMHWVKQRPEQGLEWIGWIDPENGKTKYAPKFQGKAIITADRSSNTAYLQLSSLTSEDTAVYYCAGTADWGQGTTVTVSS
VL: DIQLTQSPLTLSVSIGQPASISCKSSQSLLHSDGETYLNWLLQRPGQSPKRLIYLVSKLDSGVPDRFTGTGSGTDFTLKISRVEAEDLGVYYCWQGKHFPYTFGGGTKLEI
